The RNAGym collection of RNA variant scans (doi:10.7554/elife.80360)

B1: CPEB3 Ribozyme (parent)
chain: GGGGGCCACAGCAGAAGCGUUCACGUCGCGGCCCCUGUCAGAUUCUGGUGAAUCUGCGAAUUCUGCUGU

Variants of: B1
Assay: self-cleavage, relative activity (ratio to wild type); higher = more cleavage; co-transcriptional

| Variant | self-cleavage |
| --- | --- |
| GGGGGCCACAGAAGAAGCGUUCACGUCGCGGCCCCUGUCAGAUUCUGGUGAAUUUGCGAAUUCUGCUGU [C12A C54U] | 0.688 |
| GGGGGCCACAGAAGAAGCGUUCACGUCGCGGCCCCUGUCAGAUUCUGGUGAAUCUGCGAAUUAUGCUGU [C12A C63A] | 0.336 |
| GGGGGCCACAGAAGAAGCGUUCACGUCGCGGCCCCUGUCAGAUUCUGGUGAAUCUGCGAAUUUUGCUGU [C12A C63U] | 0.364 |
| GGGGGCCACAGAAGAAGCGUUCACGUCGCGGCCCCUGUCAGAUUCUGGUGAAUCUGCGAAUUCUGUUGU [C12A C66U] | 0.723 |
| GGGGGCCACAGAAAAAGCGUUCACGUCGCGGCCCCUGUCAGAUUCUGGUGAAUCUGCGAAUUCUGCUGU [C12A G14A] | 0.148 |
| GGGGGCCACAGAAUAAGCGUUCACGUCGCGGCCCCUGUCAGAUUCUGGUGAAUCUGCGAAUUCUGCUGU [C12A G14U] | 0.13 |
| GGGGGCCACAGAAGAAGCAUUCACGUCGCGGCCCCUGUCAGAUUCUGGUGAAUCUGCGAAUUCUGCUGU [C12A G19A] | 0.142 |
| GGGGGCCACAGAAGAAGCUUUCACGUCGCGGCCCCUGUCAGAUUCUGGUGAAUCUGCGAAUUCUGCUGU [C12A G19U] | 0.111 |
| GGGGGCCACAGAAGAAGCGUUCACAUCGCGGCCCCUGUCAGAUUCUGGUGAAUCUGCGAAUUCUGCUGU [C12A G25A] | 0.155 |
| GGGGGCCACAGAAGAAGCGUUCACUUCGCGGCCCCUGUCAGAUUCUGGUGAAUCUGCGAAUUCUGCUGU [C12A G25U] | 0.1 |
| GGGGGCCACAGAAGAAGCGUUCACGUCACGGCCCCUGUCAGAUUCUGGUGAAUCUGCGAAUUCUGCUGU [C12A G28A] | 0.13 |
| GGGGGCCACAGAAGAAGCGUUCACGUCGCCGCCCCUGUCAGAUUCUGGUGAAUCUGCGAAUUCUGCUGU [C12A G30C] | 0.194 |
| GGGGGCCACAGAAGAAGCGUUCACGUCGCGACCCCUGUCAGAUUCUGGUGAAUCUGCGAAUUCUGCUGU [C12A G31A] | 0.419 |
| GGGGGCCACAGAAGAAGCGUUCACGUCGCGCCCCCUGUCAGAUUCUGGUGAAUCUGCGAAUUCUGCUGU [C12A G31C] | 0.219 |
| GGGGGCCACAGAAGAAGCGUUCACGUCGCGUCCCCUGUCAGAUUCUGGUGAAUCUGCGAAUUCUGCUGU [C12A G31U] | 0.258 |
| GGGGGCCACAGAAGAAGCGUUCACGUCGCGGCCCCUAUCAGAUUCUGGUGAAUCUGCGAAUUCUGCUGU [C12A G37A] | 0.187 |
| GGGGGCCACAGAAGAAGCGUUCACGUCGCGGCCCCUCUCAGAUUCUGGUGAAUCUGCGAAUUCUGCUGU [C12A G37C] | 0.149 |
| GGGGGCCACAGAAGAAGCGUUCACGUCGCGGCCCCUUUCAGAUUCUGGUGAAUCUGCGAAUUCUGCUGU [C12A G37U] | 0.18 |
| GGGGGCCACAGAAGAAGCGUUCACGUCGCGGCCCCUGUCAAAUUCUGGUGAAUCUGCGAAUUCUGCUGU [C12A G41A] | 0.213 |
| GGGGGCCACAGAAGAAGCGUUCACGUCGCGGCCCCUGUCAGAUUCUGUUGAAUCUGCGAAUUCUGCUGU [C12A G48U] | 0.8 |

| Variant | self-cleavage |
| --- | --- |
| GGGGGCCACAGAAGAAGCGUUCACGUCGCGGCCCCUGUCAGAUUCUGGUGAAUCUGCAAAUUCUGCUGU [C12A G58A] | 0.62 |
| GGGGGCCACAGAAGAAGCGUUCACGUCGCGGCCCCUGUCAGAUUCUGGUGAAUCUGCGAAUUCUCCUGU [C12A G65C] | 0.841 |
| GGGGGCCACAGAAGAAGCGUGCACGUCGCGGCCCCUGUCAGAUUCUGGUGAAUCUGCGAAUUCUGCUGU [C12A U21G] | 0.0774 |
| GGGGGCCACAGAAGAAGCGUUCACGACGCGGCCCCUGUCAGAUUCUGGUGAAUCUGCGAAUUCUGCUGU [C12A U26A] | 0.374 |
| GGGGGCCACAGAAGAAGCGUUCACGGCGCGGCCCCUGUCAGAUUCUGGUGAAUCUGCGAAUUCUGCUGU [C12A U26G] | 0.447 |
| GGGGGCCACAGAAGAAGCGUUCACGUCGCGGCCCCAGUCAGAUUCUGGUGAAUCUGCGAAUUCUGCUGU [C12A U36A] | 0.194 |
| GGGGGCCACAGAAGAAGCGUUCACGUCGCGGCCCCGGUCAGAUUCUGGUGAAUCUGCGAAUUCUGCUGU [C12A U36G] | 0.154 |
| GGGGGCCACAGAAGAAGCGUUCACGUCGCGGCCCCUGACAGAUUCUGGUGAAUCUGCGAAUUCUGCUGU [C12A U38A] | 0.493 |
| GGGGGCCACAGAAGAAGCGUUCACGUCGCGGCCCCUGCCAGAUUCUGGUGAAUCUGCGAAUUCUGCUGU [C12A U38C] | 0.516 |
| GGGGGCCACAGAAGAAGCGUUCACGUCGCGGCCCCUGUCAGAUUCAGGUGAAUCUGCGAAUUCUGCUGU [C12A U46A] | 0.804 |
| GGGGGCCACAGAAGAAGCGUUCACGUCGCGGCCCCUGUCAGAUUCUGGCGAAUCUGCGAAUUCUGCUGU [C12A U49C] | 0.73 |
| GGGGGCCACAGAAGAAGCGUUCACGUCGCGGCCCCUGUCAGAUUCUGGUGAACCUGCGAAUUCUGCUGU [C12A U53C] | 0.232 |
| GGGGGCCACAGAAGAAGCGUUCACGUCGCGGCCCCUGUCAGAUUCUGGUGAAUCCGCGAAUUCUGCUGU [C12A U55C] | 0.366 |
| GGGGGCCACAGAAGAAGCGUUCACGUCGCGGCCCCUGUCAGAUUCUGGUGAAUCUGCGAAUCCUGCUGU [C12A U62C] | 0.338 |
| GGGGGCCACAGAAGAAGCGUUCACGUCGCGGCCCCUGUCAGAUUCUGGUGAAUCUGCGAAUUCAGCUGU [C12A U64A] | 0.582 |
| GGGGGCCACAGAAGAAGCGUUCACGUCGCGGCCCCUGUCAGAUUCUGGUGAAUCUGCGAAUUCCGCUGU [C12A U64C] | 0.58 |
| GGGGGCCACAGAAGAAGCGUUCACGUCGCGGCCCCUGUCAGAUUCUGGUGAAUCUGCGAAUUCUGCUGG [C12A U69G] | 0.925 |
| GGGGGCCACAGGAGAAGCGUUCACGUCGCGGCCCCUGUCAGAUUCUGGUGAAUCUGCGAAUUCUGCUGU [C12G] | 0.92 |
| GGGGGCCACAGGGGAAGCGUUCACGUCGCGGCCCCUGUCAGAUUCUGGUGAAUCUGCGAAUUCUGCUGU [C12G A13G] | 0.48 |
